From patent US20230287145A1 (Hoffmann-La Roche, published 2023)

Key:
[1] = molecular target: T1, Human CD3ε stalk-Fc(knob)-Avi/CD3δ stalk-Fc(hole) (human); assay: SPR, biotinylated human CD3ε/δ on SA chip, monovalent IgG; response normalised to anti-huIgG capture and referenced to the unstressed sample; after 2 weeks at pH 7.4/37 °C
T1 construct: Heterodimeric Fc fusion; also called human CD3ε/δ; Human CD3 epsilon stalk-Fc(knob)-Avi
Protocol: (§1) All SPR experiments were performed on a Biacore T200 instrument (GE Healthcare) at 25° C. with HBS-P+ (10 mM HEPES, 150 mM NaCl pH 7.4, 0.05% Surfactant P20) as running and dilution buffer. Biotinylated human CD3ε/δ (see Example 3, SEQ ID NOs 41 and 42) as well as biotinylated anti-huIgG (Capture Select, Thermo Scientific, #7103262100) were immobilized on a Series S Sensor Chip SA (GE Healthcare, #29104992), resulting in surface densities of at least 1000 resonance units (RU). Anti-CD3 antibodies with a concentration of 2 μg/ml were injected for 30 s at a flow rate of 5 μl/min, and dissociation was monitored for 120 s. The surface was regenerated by injecting 10 mM glycine pH 1.5 for 60 s. Bulk refractive index differences were corrected by subtracting blank injections and by subtracting the response obtained from a blank control flow cell. For evaluation, the binding response 5 seconds after injection end was taken. To normalize the binding signal, the CD3 binding was divided by the anti-huIgG response (the signal (RU) obtained upon capture of the CD3 antibody on the immobilized anti-huIgG antibody). The relative binding activity was calculated by referencing each temperature stressed sample to the corresponding, non-stressed sample.

[2] = molecular target: T1, Human CD3ε stalk-Fc(knob)-Avi/CD3δ …; assay: SPR, biotinylated human CD3ε/δ on SA chip, monovalent IgG; response normalised to anti-huIgG capture and referenced to the unstressed sample; after 2 weeks at pH 6.0/40 °C
Protocol: as §1

[3] = molecular target: T2, Cynomolgus CD3ε stalk-Fc(knob)-Avi/CD3δ stalk-Fc(hole) (cynomolgus); assay: SPR, Biacore T200, 25 °C; monovalent IgG captured by anti-PG antibody on C1 chip, CD3ε/δ-Fc as analyte; 1:1 Langmuir fit; triplicates; footnote: values may not be fully reliable, bad fit quality
T2 construct: Heterodimeric Fc fusion; also called cynomolgus CD3ε/δ
T2 sequence (chain, as listed by the source mutant limits assumed, chain 1 of 2): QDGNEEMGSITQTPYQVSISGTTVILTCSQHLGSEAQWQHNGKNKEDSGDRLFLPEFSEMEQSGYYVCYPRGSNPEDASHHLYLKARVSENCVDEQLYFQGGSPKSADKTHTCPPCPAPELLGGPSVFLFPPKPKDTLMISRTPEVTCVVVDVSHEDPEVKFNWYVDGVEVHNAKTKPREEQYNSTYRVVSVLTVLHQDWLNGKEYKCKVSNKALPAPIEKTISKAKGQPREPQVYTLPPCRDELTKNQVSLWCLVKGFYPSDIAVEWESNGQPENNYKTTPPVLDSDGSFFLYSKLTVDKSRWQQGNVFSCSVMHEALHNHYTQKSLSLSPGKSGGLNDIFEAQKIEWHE
T2 sequence (chain, as listed by the source mutant limits assumed, chain 2 of 2): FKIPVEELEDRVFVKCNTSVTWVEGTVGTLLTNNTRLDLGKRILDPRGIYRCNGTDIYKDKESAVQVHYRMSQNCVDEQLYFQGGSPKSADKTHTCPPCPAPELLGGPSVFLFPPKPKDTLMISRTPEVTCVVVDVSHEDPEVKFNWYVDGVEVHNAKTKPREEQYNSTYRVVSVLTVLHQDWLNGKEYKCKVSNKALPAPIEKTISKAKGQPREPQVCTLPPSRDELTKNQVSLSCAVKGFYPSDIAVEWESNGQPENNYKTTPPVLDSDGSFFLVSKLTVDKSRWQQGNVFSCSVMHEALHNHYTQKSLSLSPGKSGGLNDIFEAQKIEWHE
Protocol: (§2) Kinetic constants were derived using the Biacore T200 Evaluation Software (GE Healthcare Life Sciences), to fit rate equations for 1:1 Langmuir binding by numerical integration. The half-life (t_{1/2}) of the interaction was calculated using the formula t_{1/2}=ln 2/koff.
(§3) To analyze the interaction to CD3, IgG molecules were captured for 240 s at 50 nM with a flow rate of 5 μl/min. Human and cynomolgus CD3ε stalk-Fc(knob)-Avi/CD3δ-stalk-Fc(hole) were passed at a concentration of 0.061-250 nM with a flow rate of 30 μl/min through the flow cells for 300 s. The dissociation was monitored for 800 s.

[4] = molecular target: T1, Human CD3ε stalk-Fc(knob)-Avi/CD3δ …; assay: as above
Protocol: as §2, §3

[5] = molecular target: T2, Cynomolgus CD3ε stalk-Fc(knob)-Avi/CD3δ …; assay: SPR, Biacore T200, 25 °C; monovalent IgG captured by anti-PG antibody on C1 chip, CD3ε/δ-Fc as analyte; triplicates; footnote: values may not be fully reliable, bad fit quality
Protocol: as §2, §3

[6] = molecular target: T1, Human CD3ε stalk-Fc(knob)-Avi/CD3δ …; assay: as above
Protocol: as §2, §3

B1: Anti-CD3 antibody clone P004.042 in monovalent human IgG1 format (antibody, V domains shown)
VH: EVQLLESGGGLVQPGGSLRLSCAASGFQFDNYAMNWVRQAPGKGLEWVSRIRTKYNEYATYYADSVKGRFTISRDDSKNTLYLQMNSLRAEDTAVYYCVRASNFPQSYVSYFGYWGQGTLVTVSS
VL: QAVVTQEPSLTVSPGGTVTLTCGSSTGAVTTSNYANWVQEKPGQAFRGLIGGTNKRAPGTPARFSGSLLGGKAALTLSGAQPEDEAEYYCALWYSNLWVFGGGTKLTVL
notes: Monovalent human IgG1 with crossed VH and VL domains; knob-into-hole; P329G L234A L235A; also called P004.042 (monovalent IgG)
binding activity [%] [1]: 98%
binding activity [%] [2]: 101%
Kd [3]: 0.439 nM
koff [3]: 0.00809 s⁻¹
kon [3]: 1.85e+07 M⁻¹ s⁻¹
Kd [4]: 1.36 nM
koff [4]: 0.00852 s⁻¹
kon [4]: 6.28e+06 M⁻¹ s⁻¹
t1/2 [5]: 1.43 min
t1/2 [6]: 1.36 min
